From US20230047413A1

Target: tau seeds from spinal cords of P301S transgenic animals (human), P10636
Test: cell-based or functional assay

tau seeds from spinal cords of P301S transgenic animals (human), P10636, sequence (P10636 other isoform, or with tags, fused parts or gaps P301S P301S): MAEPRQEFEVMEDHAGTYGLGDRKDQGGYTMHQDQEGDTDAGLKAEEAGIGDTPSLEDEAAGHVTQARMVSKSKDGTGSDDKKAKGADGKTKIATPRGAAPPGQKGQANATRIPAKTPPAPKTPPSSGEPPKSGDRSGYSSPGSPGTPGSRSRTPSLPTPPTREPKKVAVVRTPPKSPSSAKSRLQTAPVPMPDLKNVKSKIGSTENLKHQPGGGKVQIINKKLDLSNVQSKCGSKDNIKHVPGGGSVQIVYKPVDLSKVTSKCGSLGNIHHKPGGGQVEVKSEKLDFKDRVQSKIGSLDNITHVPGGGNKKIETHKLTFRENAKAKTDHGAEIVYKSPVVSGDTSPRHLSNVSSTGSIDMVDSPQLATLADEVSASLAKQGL

FRET/P301S spinal cord immunodepletion assay, 300 nM antibody (% of negative control): 96.2
blocking of aggregate induction (FRET assay) at 3 nM: 30.7%
blocking of aggregate induction (FRET assay) at 30 nM: 37%
inhibition of K18 aggregate induction, FRET/P301S spinal cord co-incubation assay, 300 nM antibody (% of negative control): 34
B1: PT3 (mouse-hybridoma-derived antibody) (antibody, V domains shown)
VH: EVKLVESGGDLVKPGGSLKLSCAASGFTFSSYAMSWVRQNPEKRLEWVASISKGGNTYYPNSVKGRFTISRDNARNILYLQMSSLRSEDTALYYCARGWGDYGWFAYWGQVTLVTVSA
VL: DIKMTQSPSSMYASLGERVTITCKASQDINRYLNWFQQKPGKSPKTLIYRANRLLDGVPSRFSGSGSGQDYSLTISSLDYEDMGIYYCLQYDEFPLTFGDGTKLELK
modifications: here or on the partner: aggregated
